A short description of this data set: protease stability score; higher = more stable; yeast display proteolysis, trypsin and chymotrypsin.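 Note: relative to predicted unfolded state with 0 unfolded-like and 1 meaning tenfold more protease.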
In turn, “SEEEEMLHHLSERMTRALRTGDWKTLFELLDPNVRYEQGDKELHGREEMVKHIRHAMERVKNIRIEFTHIDTRLIDGRIHVHIDGRDEFNGVRFKKHIIVHIDKIDGKWFTDNFRLIYE” yielded a protease stability score of 1.15. “SEEEEMLKHALEILTEVTDTGNWEEYEKLLDPDVRVHIGDKTLVGMEEILRYWMEYFKSLGVDHVETRVKEISHQGDKMHMDTTLRIHQGDKDLEFHVEIHAEKVNGRWFIKEINFE” gave a protease stability score of 1.75.

Sequence “SEEEEMLKIALRIMLHTIHTGDEDLFSELADPNVKIKIDGVELVGWEFAHEWMREHIEQVPNVKLKIHSVKTIDGRVDSDLIRIFDGVTHKIRLISHKINGRWLIETITVN” displayed a protease stability score of 0.964. The same measure for “SEEEEMNEELIKIVLHSWKTGDEKHLEENFDPNVKLIVGDKRFIGREHLVKLIDHLIKRYPGLTIHLHDVKIQGNYVHLDTRAHFDGQTYNTRSHARKVDGRWYLTHSHIE”: 0.125; for “SEEEEMTRLALEIFHRVYKTGDEDKYRDLADPHVRLVVGDKTFHGREHYLKFFRHIRIHHSHLDDFEIQGDKAILDTTIDVNINGKRHWIKTHVISVKVNGQWRLHSEELS”: 0.178. Regarding “SEEEEMVKIADELIRRSWDTGDEDLFLHLADPNTRIFFNGRTVHGREEVEKMIRHMRIDHYELKRIDVYNGQVVIHGKIEITVNGVTKTHEVDIIIEKINGKWILRSIHHK”, the protease stability score came out at 1.11.

“SEEEEMVKRLVEIIARMLETGDEDTLLELLDPEPRIEIGDKRFHGWEEFHKEEHKRLREMRVNSTHIEDVKVYNGRARIHLRIDGSIDGRRIEMRSHFIVQKINGRWSITSVIIR” came in with a protease stability score of 1.52.

“SEEEEMVKVALELLKHSLETGDERLMLRQIDPHAKFDVDGKEHHGRDVFREIEERVDVLHLDHVEIQHVHIQGNKLHIHLEMRSTFLFNGRTFHYRLHYEIIMFKFNGKWLITSLQLR” registered a protease stability score of 0.485. The same measure for “SEEEENAHKAMRFLEEVMKTGDEKSWLDLFDPDARIIIGDKHHIGWEHIHELMRRIDHIHDFHVHDVRSQGDKVFVDIKIDGIINGRRYRTRIEVIVRKFDGKWHIDHIQHN”: 1.2.

Turning to “SEEEENARRAAEHHEHVLKTGDEDHMTRMFDPNVRVRQGDKEIHGREEFRRLFHELVRRYPNLKFELEDVDVFNGKVVVHMIFWVDGRTIEIHWFIDKFDGQWVVEEVEFR”, the protease stability score came to 1.19.

The sequence “SEEEENIEHSLRIMNENLETGDEHSLAELFDPNAKIDIGDKHLHGRETLITHLVLLGIKHSSIINREYHMIGEWAHINGDLRIEIGDKERHHDVRILSRKIDGRWVVTEFHIR” came in with a protease stability score of 1.19. “SEEEENILIAYRLIMHSVNTGDESSLLELIDPDYRLDVNGVDIHGREEWYRDQKERFRDAGFKHTEFRFRDLRVQGDKVFLDVEITWHVDGKTIRHRVTMIVLKVNGRWLVESFKVK” gave a protease stability score of 1.48. Under “SEEEENSRLLVELYFRWLVTGNEEVHNKYLDPNMRLEIRIGDKTIETHGREEILRAMREWRIRHVELKDRHVQGDKAHIEGTIIIEFDGRDIERHLNIIIVVINGRIHEIQLHVR” stands 2.79; under “SEEEENSRRVLELFRRIFETGDEDTSRRLADPDARVEVGEFHSIGRESFARMLHHLWRELRWKDEKIEHIEVQGDKVHVNGINFVIYNGKEINLTVHLEMQKVDGRWHIHHFKIE”, 1.67. The same measure for “SEEEEQAKEAVRHFIHKWQTGDEDRLKELLDPHTKIDIGDKHIHGREEATKLIRNELHRIKNIRVELRDIEVRVYDGVIELHIRGLEKYNGQEVHVTIILIFRKINGQWIIQSEHFHID”: 1.31.

For the sequence “SEEEEQAKRVIDHVTRAIHTGDEDVLRRQFDPHVKIEVGDKDIHGWETMYEILTHIRIETESDVKDFKVQGDKLIMDVRLRFTIRIDGVEIHRQTTTNIIVHKVNGRWQMKKVEIR”, the protease stability score is 0.409.

“SEEEEQFKKVFEIVIRFIITGDEHSMLKNADPNARLEIGDKEVIGMENLLERLTRIIDQFKNVRIEFHVKDHDLQGDKLHLETEIVLKFDGRELRIILHIVWTKINGRWIITSLSER”: the protease stability score worked out at 1.17. “SEEEEQLIRMADVFLHLFLTGDEDTLRSLFDPNAKLDINGVHSVGRENVKKAKEEWENKLGVNHHRLHEIRVVNGRTDLDGEVEWDGKRQRVRLVLVLINGRIRHEKIIFE” came in with a protease stability score of 1.03.

These data come from the NTF2 design screens of Basanta et al. (2020).
